Our source for the protein stability index values is the supplement of paper PMC10724198.

± gives the standard deviation of the averaged measurements.

The series has as its system Saccharomyces cerevisiae. Briefly: protein stability index of tFT-peptide fusion (C-terminal peptide) (PSI (0-1 scale)); higher = more stable (slower turnover). As to conditions: temperature: 30 C. On the procedure: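 MPS profiling in S. cerevisiae of the yeast C-terminome library: the last 12 aa of each annotated ORF are fused to the C-terminus of a sfGFP-mCherry timer, after a GGGS linker. Cells are FACS-sorted into 8 mCherry/sfGFP bins and deep-sequenced. PSI runs from 0 (unstable) to 1 (stable); wild type and das1Δ backgrounds, two technical replicates each.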

[1] abbreviates: genetic background: das1 deletion.

On to AVASFFLRNKRR [FIS1 C-terminal 12 aa], for which the protein stability index was determined as 0.7073 ± 0.0052 under setting [1] and 0.69 ± 0.027 (genetic background: wild type).

With AVENQFFSQKKK [ACS2 C-terminal 12 aa], the protein stability index came to 0.707 ± 0.044 under setting [1] and 0.697 ± 0.034 (genetic background: wild type).

AVNALNEAMDKL [BNA5 C-terminal 12 aa] displayed a protein stability index under setting [1] of 0.677 ± 0.015 and a protein stability index (genetic background: wild type) of 0.696 ± 0.11.

On to AVYEELVHELFH [PSP1 C-terminal 12 aa], for which the protein stability index was determined as 0.72 ± 0.021 under setting [1] and 0.675 ± 0.031 (genetic background: wild type).

On to AYEPFSFRAIIE [STV1 C-terminal 12 aa], for which the protein stability index is 0.686 ± 0.008 under setting [1] and 0.723 ± 0.035 (genetic background: wild type).

CAAVEKGPILDA [THI74 C-terminal 12 aa]: the protein stability index was 0.691 ± 0.019 under setting [1] and 0.682 ± 0.021 (genetic background: wild type).

As to “CGCQLAVAMTTC [YFL015W-A C-terminal 12 aa]”, the protein stability index was determined as 0.553 ± 0.039 under setting [1] and 0.513 ± 0.013 (genetic background: wild type).

For the sequence CLILSQYSILMD [ATG18 C-terminal 12 aa], the protein stability index is, setting by setting: under setting [1], 0.631 ± 0.038; (genetic background: wild type) 0.616 ± 0.045.

In the case of CLMVSFLLLFGV [OLI1 C-terminal 12 aa], the protein stability index by setting is: under setting [1], 0.315 ± 0.0097; (genetic background: wild type) 0.3088 ± 0.0016.

CLSGGLLRKIPK [TMH18 C-terminal 12 aa] displayed a protein stability index under setting [1] of 0.722 ± 0.087 and a protein stability index (genetic background: wild type) of 0.6861 ± 0.006.

In the case of CPPTIEIGGGGH [MIR1 C-terminal 12 aa], the protein stability index by setting is: under setting [1], 0.712 ± 0.0075; (genetic background: wild type) 0.706 ± 0.0053.

In the case of CSLINSCAFFCL [YDR413C C-terminal 12 aa], the protein stability index under setting [1] stood at 0.704 ± 0.012 and the protein stability index (genetic background: wild type) is 0.647 ± 0.013.

For CSTRRSYLRYKK [YBR285W C-terminal 12 aa], the protein stability index was determined as 0.705 ± 0.0047 under setting [1] and 0.6634 ± 0.0014 (genetic background: wild type).

CVNSASLNLKKD [MXR2 C-terminal 12 aa]: the protein stability index runs as follows: under setting [1], 0.695 ± 0.023; (genetic background: wild type) 0.682 ± 0.035.

Take “CVTQACGRTIKM [YBR141W-A C-terminal 12 aa]”: the protein stability index reads like this: under setting [1], 0.732 ± 0.037; (genetic background: wild type) 0.779 ± 0.13.

In the case of DAIDNSDEITQD [IRR1 C-terminal 12 aa], the protein stability index is, setting by setting: under setting [1], 0.709 ± 0.029; (genetic background: wild type) 0.703 ± 0.064.

Turning to DALYRIIYGNIL [TIP20 C-terminal 12 aa], the protein stability index is 0.711 ± 0.02 under setting [1] and 0.743 ± 0.037 (genetic background: wild type).

DATRREVMTERK [LSM2 C-terminal 12 aa]: the protein stability index reads like this: under setting [1], 0.672 ± 0.014; (genetic background: wild type) 0.688 ± 0.059.

In the case of DAYHKAAEENKD [MCT1 C-terminal 12 aa], the protein stability index was 0.6729 ± 0.0053 under setting [1] and 0.693 ± 0.016 (genetic background: wild type).

As to DDEFGDLDAVFF [SNF6 C-terminal 12 aa], the protein stability index runs as follows: under setting [1], 0.747 ± 0.021; (genetic background: wild type) 0.739 ± 0.0056.

As to DDIANNQSICCV [YPT11 C-terminal 12 aa], the protein stability index stood at 0.649 ± 0.02 under setting [1] and 0.649 ± 0.018 (genetic background: wild type).

Regarding DDSKILIEHLSE [PET54 C-terminal 12 aa], the protein stability index amounted to 0.697 ± 0.024 under setting [1] and 0.662 ± 0.04 (genetic background: wild type).

Sequence DEFIKKNSDKIR [EXO84 C-terminal 12 aa] registered a protein stability index under setting [1] of 0.676 ± 0.047 and a protein stability index (genetic background: wild type) of 0.64 ± 0.037.

Regarding DEMQDFLKKHAS [SWI6 C-terminal 12 aa], the protein stability index was 0.7311 ± 0.0031 under setting [1] and 0.643 ± 0.033 (genetic background: wild type).

As for DERLEQLKRLGI [HOM3 C-terminal 12 aa], the protein stability index reads like this: under setting [1], 0.7246 ± 0.0048; (genetic background: wild type) 0.677 ± 0.019.

As to DERRQPVSNLRM [YDL163W C-terminal 12 aa], the protein stability index under setting [1] amounted to 0.712 ± 0.018 and the protein stability index (genetic background: wild type) stood at 0.658 ± 0.01.

Turning to DEVTYLMFSSIM [SPG1 C-terminal 12 aa], the protein stability index came out at 0.713 ± 0.011 under setting [1] and 0.658 ± 0.026 (genetic background: wild type).

For the sequence DEWLNLHINIVE [SHU2 C-terminal 12 aa], the protein stability index by setting is: under setting [1], 0.741 ± 0.0062; (genetic background: wild type) 0.717 ± 0.014.

In turn, DEWRAKYGGQQV [MES1 C-terminal 12 aa] came in with a protein stability index under setting [1] of 0.675 ± 0.037 and a protein stability index (genetic background: wild type) of 0.676 ± 0.029.

On to DFENKLKKKKRK [TMA64 C-terminal 12 aa], for which the protein stability index reads like this: under setting [1], 0.7268 ± 0.0047; (genetic background: wild type) 0.715 ± 0.018.

DIDDDVGEDSED [RMR1 C-terminal 12 aa]: the protein stability index stood at 0.694 ± 0.014 under setting [1] and 0.662 ± 0.013 (genetic background: wild type).

As to DIIYFRAGAGKN [OLA1 C-terminal 12 aa], the protein stability index under setting [1] was 0.691 ± 0.017 and the protein stability index (genetic background: wild type) stood at 0.6666 ± 0.0055.

For the sequence DILKILSSSFHN [SPC29 C-terminal 12 aa], the protein stability index amounted to 0.7095 ± 0.0039 under setting [1] and 0.709 ± 0.014 (genetic background: wild type).

Consider DISVQQVKIASK [SPF1 C-terminal 12 aa], for which the protein stability index runs as follows: under setting [1], 0.682 ± 0.018; (genetic background: wild type) 0.6857 ± 0.0041.

For the sequence DKAAPALKKVKM [SFL1 C-terminal 12 aa], the protein stability index worked out at 0.675 ± 0.026 under setting [1] and 0.71 ± 0.041 (genetic background: wild type).

Take DKIDVVLKKISQ [ECM15 C-terminal 12 aa]: the protein stability index reads like this: under setting [1], 0.7095 ± 0.0048; (genetic background: wild type) 0.683 ± 0.067.

Regarding DKLAQRLRALRG [DID2 C-terminal 12 aa], the protein stability index is, setting by setting: under setting [1], 0.699 ± 0.01; (genetic background: wild type) 0.684 ± 0.048.

Turning to DKLSWSVRWEPR [URA4 C-terminal 12 aa], the protein stability index amounted to 0.712 ± 0.021 under setting [1] and 0.721 ± 0.022 (genetic background: wild type).

The sequence DLEFEEQREPKL [NVJ2 C-terminal 12 aa] came in with a protein stability index under setting [1] of 0.719 ± 0.006 and a protein stability index (genetic background: wild type) of 0.668 ± 0.011.

For DLKTGNAVKGEL [SSZ1 C-terminal 12 aa], the protein stability index is 0.669 ± 0.019 under setting [1] and 0.6914 ± 0.0056 (genetic background: wild type).

Regarding DLLDMIDSLGKL [FSH3 C-terminal 12 aa], the protein stability index came out at 0.688 ± 0.023 under setting [1] and 0.694 ± 0.056 (genetic background: wild type).

Take DNFMNNSDIFQN [TGL5 C-terminal 12 aa]: the protein stability index runs as follows: under setting [1], 0.741 ± 0.027; (genetic background: wild type) 0.686 ± 0.0082.

In the case of DPSKLRRVPVIQ [RGL1 C-terminal 12 aa], the protein stability index is 0.69 ± 0.018 under setting [1] and 0.687 ± 0.066 (genetic background: wild type).

Sequence DQAKDASPNAKK [RGM1 C-terminal 12 aa] registered a protein stability index under setting [1] of 0.694 ± 0.0073 and a protein stability index (genetic background: wild type) of 0.673 ± 0.011.

In the case of DRKQSQATNATN [ARP7 C-terminal 12 aa], the protein stability index by setting is: under setting [1], 0.687 ± 0.016; (genetic background: wild type) 0.671 ± 0.0046.

In the case of DRVQRAFPKPDT [GLG2 C-terminal 12 aa], the protein stability index is 0.704 ± 0.016 under setting [1] and 0.686 ± 0.032 (genetic background: wild type).

On to DSEEKKSKKSKK [CBF5 C-terminal 12 aa], for which the protein stability index runs as follows: under setting [1], 0.669 ± 0.056; (genetic background: wild type) 0.6785 ± 0.0045.

As to DSHEDMKRRRLE [ROX3 C-terminal 12 aa], the protein stability index is, setting by setting: under setting [1], 0.6865 ± 0.0045; (genetic background: wild type) 0.695 ± 0.0078.

On to DSIRRIREKYSN [APP1 C-terminal 12 aa], for which the protein stability index by setting is: under setting [1], 0.6896 ± 0.0039; (genetic background: wild type) 0.492 ± 0.013.

Turning to DTFFDRVMKVLT [NAN1 C-terminal 12 aa], the protein stability index was 0.707 ± 0.034 under setting [1] and 0.6917 ± 0.0012 (genetic background: wild type).

Consider DVLDDLYRKLQR [CSE2 C-terminal 12 aa], for which the protein stability index was 0.7138 ± 8.1e-05 under setting [1] and 0.699 ± 0.02 (genetic background: wild type).

As to DWQNGQVEDSIP [PEX14 C-terminal 12 aa], the protein stability index worked out at 0.711 ± 0.023 under setting [1] and 0.672 ± 0.0079 (genetic background: wild type).

Take DYKLRELIYDTI [AIP5 C-terminal 12 aa]: the protein stability index stood at 0.7014 ± 0.0011 under setting [1] and 0.661 ± 0.018 (genetic background: wild type).

DYSFVNTFRDYE [HAL9 C-terminal 12 aa]: the protein stability index turned out to be 0.697 ± 0.022 under setting [1] and 0.736 ± 0.053 (genetic background: wild type).

On to EAAKKSEKKAKK [RPL34A C-terminal 12 aa], for which the protein stability index by setting is: under setting [1], 0.695 ± 0.0092; (genetic background: wild type) 0.689 ± 0.023.

Take EAAKYFREQYKN [MET6 C-terminal 12 aa]: the protein stability index stood at 0.7045 ± 0.0028 under setting [1] and 0.7172 ± 0.0068 (genetic background: wild type).

EATIENLKRLKL [VAS1 C-terminal 12 aa]: the protein stability index runs as follows: under setting [1], 0.693 ± 0.016; (genetic background: wild type) 0.642 ± 0.0087.

As for ECPGGCPGVAFI [RTC1 C-terminal 12 aa], the protein stability index was found to be 0.7077 ± 0.0053 under setting [1] and 0.685 ± 0.024 (genetic background: wild type).

As to EDDITVVVVRVD [PTC7 C-terminal 12 aa], the protein stability index amounted to 0.646 ± 0.019 under setting [1] and 0.673 ± 0.02 (genetic background: wild type).

Turning to EDEFLINSDDEM [CUE5 C-terminal 12 aa], the protein stability index is, setting by setting: under setting [1], 0.726 ± 0.064; (genetic background: wild type) 0.716 ± 0.037.

As for EDWSVEELIVDL [RPO26 C-terminal 12 aa], the protein stability index runs as follows: under setting [1], 0.681 ± 0.009; (genetic background: wild type) 0.71 ± 0.022.

In the case of EEANEDEEEDDW [MYO5 C-terminal 12 aa], the protein stability index under setting [1] turned out to be 0.6825 ± 0.0025 and the protein stability index (genetic background: wild type) amounted to 0.706 ± 0.015.

In the case of EEEAGYSDVEME [UTP5 C-terminal 12 aa], the protein stability index by setting is: under setting [1], 0.6936 ± 0.005; (genetic background: wild type) 0.698 ± 0.013.

As for EEEKRRRKKGIR [SPT2 C-terminal 12 aa], the protein stability index by setting is: under setting [1], 0.706 ± 0.022; (genetic background: wild type) 0.662 ± 0.0095.

Regarding EEGEVVEEEAEK [HSP78 C-terminal 12 aa], the protein stability index stood at 0.678 ± 0.022 under setting [1] and 0.6852 ± 0.0044 (genetic background: wild type).

For the sequence EELEAEQIDVFS [PRP8 C-terminal 12 aa], the protein stability index runs as follows: under setting [1], 0.689 ± 0.023; (genetic background: wild type) 0.684 ± 0.02.

In turn, EELFEEDSFYKY [NDT80 C-terminal 12 aa] displayed a protein stability index under setting [1] of 0.736 ± 0.011 and a protein stability index (genetic background: wild type) of 0.759 ± 0.019.

For the sequence EEPQLDLLDDVL [MTW1 C-terminal 12 aa], the protein stability index came out at 0.706 ± 0.03 under setting [1] and 0.709 ± 0.084 (genetic background: wild type).
